Data reported in the supplement of paper PMC10201428.
± gives the standard deviation of the averaged measurements.

What was measured:
[1] = tested on: VchCAST RNA-guided transposition machinery (E. coli BL21(DE3) host, lacZ target); assay: relative integration efficiency (T-RL orientation) vs wild-type transposon end (log2 (normalized fold change)); transposon end mutated: right end (5 bp flank + 75 bp right end); higher = more efficient transposition
In short: (§1)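 Barcode abundances in input plasmids and in genomic integration junctions were obtained by PCR amplification and Illumina sequencing. These came from E. coli BL21(DE3) co-transformed with a T7-driven effector plasmid and a pUC57 donor carrying 1549 left-end or 1849 right-end transposon variants, then plated with 0.1 mM IPTG at 37°C for 18 h. Relative integration efficiency is the output/input fold change, normalised to reference barcodes and log-transformed.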

[2] = tested on: VchCAST RNA-guided transposition machinery (E. coli BL21(DE3) host, lacZ target); assay: relative integration efficiency (T-LR orientation) vs wild-type transposon end (log2 (normalized fold change)); transposon end mutated: right end (5 bp flank + 75 bp right end); higher = more efficient transposition
In short: as §1

Row | Sequence | relative integration efficiency (log2) [1] | relative integration efficiency (log2) [2]
1 | ACATTTGTTGATACAACCATAAAATGATAATTACACCCATAAATTGATAATTATCACACGGATAAATTGATATTGCCTCTGATCATAGTCAGACCAACATTGCTACGACCCGTATTCGCACCGACAC | -0.238 ± 0.062 | 1.28 ± 0.22
2 | ACATTTGTTGATACAACCATAAAATGATAATTACACCCATAAATTGATAATTATCACACGGTAAAATTGATATTGCCTCTGATCATAGTCAGACCAACATTGCTACGACCCGTATTCGCACCGACAC | -0.357 ± 0.043 | 2.35 ± 0.067
3 | ACATTTGTTGATACAACCATAAAATGATAATTACACCCATAAATTGATAATTATCACAGGCATAAATTGATATTGCCTCTGATCATAGTCAGACCAACATTGCTACGACCCGTATTCGCACCGACAC | -0.0803 ± 0.09 | 0.567 ± 0.2
4 | ACATTTGTTGATACAACCATAAAATGATAATTACACCCATAAATTGATAATTATCACAGGGTTAAATTGATATTGCCTCTGATCATAGTCAGACCAACATTGCTACGACCCGTATTCGCACCGACAC | -0.425 ± 0.14 | 2.33 ± 0.045
5 | ACATTTGTTGATACAACCATAAAATGATAATTACACCCATAAATTGATAATTATCACCAAAATAAATTGATATTGCCTCTGATCATAGTCAGACCAACATTGCTACGACCCGTATTCGCACCGACAC | -0.112 ± 0.18 | 2.72 ± 0.1
6 | ACATTTGTTGATACAACCATAAAATGATAATTACACCCATAAATTGATAATTATCACCAAACGCCCGGTCGCGGTAAGAGGATCATAGTCAGACCAACATTGCTACGACCCGTATTCGCACCGACAC | -0.505 ± 0.14 | 2.47 ± 0.095
7 | ACATTTGTTGATACAACCATAAAATGATAATTACACCCATAAATTGATAATTATCACCACCATAAATTGATATTGCCTCTGATCATAGTCAGACCAACATTGCTACGACCCGTATTCGCACCGACAC | 0.659 ± 0.12 | 1.14 ± 0.095
8 | ACATTTGTTGATACAACCATAAAATGATAATTACACCCATAAATTGATAATTATCACCCATAAATTGATATTGCCTCTGATCATAGTCAGACCAACATTGCTACGACCCGTATTCGCACCGACACTG | -0.448 ± 0.081 | 2.21 ± 0.045
9 | ACATTTGTTGATACAACCATAAAATGATAATTACACCCATAAATTGATAATTATCACTGCCATAAATTGATATTGCCTCTGATCATAGTCAGACCAACATTGCTACGACCCGTATTCGCACCGACAC | -0.228 ± 0.042 | 1.72 ± 0.2
10 | ACATTTGTTGATACAACCATAAAATGATAATTACACCCATAAATTGATAATTATCACTGGGATAAATTGATATTGCCTCTGATCATAGTCAGACCAACATTGCTACGACCCGTATTCGCACCGACAC | -0.4 ± 0.027 | 2.07 ± 0.067
11 | ACATTTGTTGATACAACCATAAAATGATAATTACACCCATAAATTGATAATTATCAGTCCCATAAATTGATATTGCCTCTGATCATAGTCAGACCAACATTGCTACGACCCGTATTCGCACCGACAC | -0.441 ± 0.031 | 1.51 ± 0.031
12 | ACATTTGTTGATACAACCATAAAATGATAATTACACCCATAAATTGATAATTATCAGTGGCATAAATTGATATTGCCTCTGATCATAGTCAGACCAACATTGCTACGACCCGTATTCGCACCGACAC | -0.377 ± 0.12 | 1.86 ± 0.12
13 | ACATTTGTTGATACAACCATAAAATGATAATTACACCCATAAATTGATAATTATCAGTGGGTATTTAACTATAACGCTCTGATCATAGTCAGACCAACATTGCTACGACCCGTATTCGCACCGACAC | -0.681 ± 0.17 | 2.65 ± 0.1
14 | ACATTTGTTGATACAACCATAAAATGATAATTACACCCATAAATTGATAATTATCCAACCCATAAATTGATATTGCCTCTGATCATAGTCAGACCAACATTGCTACGACCCGTATTCGCACCGACAC | -0.362 ± 0.18 | 0.964 ± 0.12
15 | ACATTTGTTGATACAACCATAAAATGATAATTACACCCATAAATTGATAATTATCCACAAACGCCCGGTCGCGGTAAGAGGATCATAGTCAGACCAACATTGCTACGACCCGTATTCGCACCGACAC | -0.795 ± 0.075 | 2.3 ± 0.11
16 | ACATTTGTTGATACAACCATAAAATGATAATTACACCCATAAATTGATAATTATCCACACCATAAATTGATATTGCCTCTGATCATAGTCAGACCAACATTGCTACGACCCGTATTCGCACCGACAC | -0.495 ± 0.13 | 0.485 ± 0.4
17 | ACATTTGTTGATACAACCATAAAATGATAATTACACCCATAAATTGATAATTATCCACCCATAAATTGATATTGCCTCTGATCATAGTCAGACCAACATTGCTACGACCCGTATTCGCACCGACACT | -0.433 ± 0.14 | 0.607 ± 0.072
18 | ACATTTGTTGATACAACCATAAAATGATAATTACACCCATAAATTGATAATTATCCCACCCCATTTAACTATAACGCTCTGATCATAGTCAGACCAACATTGCTACGACCCGTATTCGCACCGACAC | -1.3 ± 0.37 | 2.388 ± 0.023

Row | Sequence | relative integration efficiency (log2) [1] | relative integration efficiency (log2) [2]
19 | ACATTTGTTGATACAACCATAAAATGATAATTACACCCATAAATTGATAATTATCTGACCCATAAATTGATATTGCCTCTGATCATAGTCAGACCAACATTGCTACGACCCGTATTCGCACCGACAC | -0.393 ± 0.12 | 0.513 ± 0.03
20 | ACATTTGTTGATACAACCATAAAATGATAATTACACCCATAAATTGATAATTATCTGTGCCATAAATTGATATTGCCTCTGATCATAGTCAGACCAACATTGCTACGACCCGTATTCGCACCGACAC | -0.555 ± 0.23 | 2.04 ± 0.1
21 | ACATTTGTTGATACAACCATAAAATGATAATTACACCCATAAATTGATAATTATGACACCGAATTTAACTATAACGCTCTGATCATAGTCAGACCAACATTGCTACGACCCGTATTCGCACCGACAC | -1.22 ± 0.39 | 2.37 ± 0.096
22 | ACATTTGTTGATACAACCATAAAATGATAATTACACCCATAAATTGATAATTATGTCACCCATAAATTGATATTGCCTCTGATCATAGTCAGACCAACATTGCTACGACCCGTATTCGCACCGACAC | -0.72 ± 0.15 | 0.557 ± 0.054
23 | ACATTTGTTGATACAACCATAAAATGATAATTACACCCATAAATTGATAATTATGTGTCCCATAAATTGATATTGCCTCTGATCATAGTCAGACCAACATTGCTACGACCCGTATTCGCACCGACAC | -0.725 ± 0.24 | 1.63 ± 0.16
24 | ACATTTGTTGATACAACCATAAAATGATAATTACACCCATAAATTGATAATTCACACCCATAAATTGATATTGCCTCTGATCATAGTCAGACCAACATTGCTACGACCCGTATTCGCACCGACACTG | -1.06 ± 0.18 | 1.41 ± 0.045
25 | ACATTTGTTGATACAACCATAAAATGATAATTACACCCATAAATTGATAATTCGACACAAACGCCCGGTCGCGGTAAGAGGATCATAGTCAGACCAACATTGCTACGACCCGTATTCGCACCGACAC | 0.636 ± 0.17 | 3.748 ± 0.033
26 | ACATTTGTTGATACAACCATAAAATGATAATTACACCCATAAATTGATAATTCGACCACCCATAAATTGATATTGCCTCTGATCATAGTCAGACCAACATTGCTACGACCCGTATTCGCACCGACAC | -0.541 ± 0.14 | 0.317 ± 0.33
27 | ACATTTGTTGATACAACCATAAAATGATAATTACACCCATAAATTGATAATTCGCACACCCATAAATTGATATTGCCTCTGATCATAGTCAGACCAACATTGCTACGACCCGTATTCGCACCGACAC | -0.551 ± 0.065 | 0.189 ± 0.39
28 | ACATTTGTTGATACAACCATAAAATGATAATTACACCCATAAATTGATAATTGTGACACCGAATTTAACTATAACGCTCTGATCATAGTCAGACCAACATTGCTACGACCCGTATTCGCACCGACAC | -0.766 ± 0.25 | 2.87 ± 0.14
29 | ACATTTGTTGATACAACCATAAAATGATAATTACACCCATAAATTGATAATTTACACACCCATAAATTGATATTGCCTCTGATCATAGTCAGACCAACATTGCTACGACCCGTATTCGCACCGACAC | -0.0701 ± 0.25 | 0.268 ± 0.15
30 | ACATTTGTTGATACAACCATAAAATGATAATTACACCCATAAATTGATAATTTAGTCACCCATAAATTGATATTGCCTCTGATCATAGTCAGACCAACATTGCTACGACCCGTATTCGCACCGACAC | -0.447 ± 0.07 | 0.247 ± 0.11
31 | ACATTTGTTGATACAACCATAAAATGATAATTACACCCATAAATTGATAATTTCACACCCATAAATTGATATTGCCTCTGATCATAGTCAGACCAACATTGCTACGACCCGTATTCGCACCGACACT | -0.767 ± 0.17 | 0.745 ± 0.092
32 | ACATTTGTTGATACAACCATAAAATGATAATTACACCCATAAATTGATACGGCGACACAAACGCCCGGTCGCGGTAAGAGGATCATAGTCAGACCAACATTGCTACGACCCGTATTCGCACCGACAC | -0.726 ± 0.13 | 2.25 ± 0.24
33 | ACATTTGTTGATACAACCATAAAATGATAATTACACCCATAAATTGATACGGCTCACACCCATAAATTGATATTGCCTCTGATCATAGTCAGACCAACATTGCTACGACCCGTATTCGCACCGACAC | -0.622 ± 0.074 | 0.173 ± 0.15
34 | ACATTTGTTGATACAACCATAAAATGATAATTACACCCATAAATTGATACGTATCACACCCATAAATTGATATTGCCTCTGATCATAGTCAGACCAACATTGCTACGACCCGTATTCGCACCGACAC | -0.704 ± 0.012 | -0.44 ± 0.48
35 | ACATTTGTTGATACAACCATAAAATGATAATTACACCCATAAATTGATATAATTCACACCCATAAATTGATATTGCCTCTGATCATAGTCAGACCAACATTGCTACGACCCGTATTCGCACCGACAC | -0.233 ± 0.14 | 0.18 ± 0.19
